Experimental data: paper PMC10501992, “How Pol α-primase is targeted to replisomes to prime eukaryotic DNA replication” (Molecular Cell, 2023)

Legend:
Assay in all cases: cryo-EM structure; human replisome: 150 nM CMG on fork DNA (60 nt or 15 nt 5′ flap) with 1.5-fold molar excess of AND-1, TIMELESS-TIPIN, CLASPIN and Pol α-primase; 25 mM HEPES-NaOH pH 7.6, 150 mM NaOAc, 0.5 mM TCEP, 500 μM AMP-PNP, 10 mM Mg(OAc)2, on ice; 10-30% glycerol gradient with glutaraldehyde and BS3 cross-linkers
[1] = target: T1, human CMG (CDC45-MCM-GINS) replicative helicase (human, UniProt O75419 1-566; P49736 1-904; P25205 1-808; P33991 1-863; P33992 1-734; Q14566 …); conditions: both partners purified
T1 construct: CDC45, human; MCM2, human; MCM3, human; MCM4, human; MCM5, human; MCM6, human; MCM7, human; PSF1, subunit of GINS, human; PSF2, subunit of GINS, human; PSF3, subunit of GINS, human; SLD5, subunit of GINS, human; the subunits are named in the methods for the MCM3-4A form, which was made as the wild type; copies: + + + + + + + + + +

[2] = target: the molecule itself
[3] = target: T2, POLA1 (human Pol α catalytic subunit) (human, UniProt P09884 1-1462); conditions: both partners purified
T2 construct: POLA1, human; modelled residues 1279-1445 and 1448-1458 (CTD); stood in the assay as a subunit of m18; also called POLA1CTD; POLA1_(exo-cat)
T2 sequence: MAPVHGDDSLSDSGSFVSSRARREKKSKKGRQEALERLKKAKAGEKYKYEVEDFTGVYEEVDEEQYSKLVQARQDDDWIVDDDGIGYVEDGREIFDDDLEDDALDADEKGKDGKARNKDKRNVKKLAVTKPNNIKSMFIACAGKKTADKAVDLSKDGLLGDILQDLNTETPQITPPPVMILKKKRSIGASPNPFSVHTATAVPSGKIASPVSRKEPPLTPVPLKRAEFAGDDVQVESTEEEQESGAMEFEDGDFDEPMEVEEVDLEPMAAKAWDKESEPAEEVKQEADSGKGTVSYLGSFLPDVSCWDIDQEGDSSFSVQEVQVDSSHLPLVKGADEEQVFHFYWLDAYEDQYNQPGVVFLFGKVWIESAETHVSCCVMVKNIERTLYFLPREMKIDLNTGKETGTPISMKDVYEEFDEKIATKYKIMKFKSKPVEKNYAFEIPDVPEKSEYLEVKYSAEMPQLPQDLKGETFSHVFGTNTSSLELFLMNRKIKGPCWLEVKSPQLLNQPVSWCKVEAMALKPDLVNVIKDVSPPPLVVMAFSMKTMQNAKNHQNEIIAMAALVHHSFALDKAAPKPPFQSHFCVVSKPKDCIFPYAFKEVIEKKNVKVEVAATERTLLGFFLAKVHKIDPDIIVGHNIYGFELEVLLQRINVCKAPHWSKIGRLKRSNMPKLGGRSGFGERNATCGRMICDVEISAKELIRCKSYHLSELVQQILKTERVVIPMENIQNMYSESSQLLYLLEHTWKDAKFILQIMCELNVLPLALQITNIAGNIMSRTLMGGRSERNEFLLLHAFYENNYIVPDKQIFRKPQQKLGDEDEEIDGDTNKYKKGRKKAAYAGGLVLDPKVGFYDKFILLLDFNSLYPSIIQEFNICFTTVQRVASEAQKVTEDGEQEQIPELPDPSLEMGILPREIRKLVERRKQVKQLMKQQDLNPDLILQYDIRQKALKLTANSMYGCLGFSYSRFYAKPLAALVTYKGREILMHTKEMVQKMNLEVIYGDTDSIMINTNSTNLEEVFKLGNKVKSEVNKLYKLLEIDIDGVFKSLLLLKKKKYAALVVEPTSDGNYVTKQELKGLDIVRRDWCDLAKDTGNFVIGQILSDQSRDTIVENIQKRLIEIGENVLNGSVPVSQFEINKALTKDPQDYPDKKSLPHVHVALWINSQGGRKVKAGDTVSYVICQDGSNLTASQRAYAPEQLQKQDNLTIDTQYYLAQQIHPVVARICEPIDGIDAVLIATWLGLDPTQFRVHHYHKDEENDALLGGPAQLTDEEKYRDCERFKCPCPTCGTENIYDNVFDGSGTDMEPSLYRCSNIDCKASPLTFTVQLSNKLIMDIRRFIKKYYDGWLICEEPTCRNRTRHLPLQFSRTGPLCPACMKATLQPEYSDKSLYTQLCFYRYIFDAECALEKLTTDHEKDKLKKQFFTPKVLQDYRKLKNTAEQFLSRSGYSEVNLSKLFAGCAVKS

B1: AND-1 (human) (natural protein)
chain: MPATRKPMRYGHTEGHTEVCFDDSGSFIVTCGSDGDVRIWEDLDDDDPKFINVGEKAYSCALKSGKLVTAVSNNTIQVHTFPEGVPDGILTRFTTNANHVVFNGDGTKIAAGSSDFLVKIVDVMDSSQQKTFRGHDAPVLSLSFDPKDIFLASASCDGSVRVWQISDQTCAISWPLLQKCNDVINAKSICRLAWQPKSGKLLAIPVEKSVKLYRRESWSHQFDLSDNFISQTLNIVTWSPCGQYLAAGSINGLIIVWNVETKDCMERVKHEKGYAICGLAWHPTCGRISYTDAEGNLGLLENVCDPSGKTSSSKVSSRVEKDYNDLFDGDDMSNAGDFLNDNAVEIPSFSKGIINDDEDDEDLMMASGRPRQRSHILEDDENSVDISMLKTGSSLLKEEEEDGQEGSIHNLPLVTSQRPFYDGPMPTPRQKPFQSGSTPLHLTHRFMVWNSIGIIRCYNDEQDNAIDVEFHDTSIHHATHLSNTLNYTIADLSHEAILLACESTDELASKLHCLHFSSWDSSKEWIIDLPQNEDIEAICLGQGWAAAATSALLLRLFTIGGVQKEVFSLAGPVVSMAGHGEQLFIVYHRGTGFDGDQCLGVQLLELGKKKKQILHGDPLPLTRKSYLAWIGFSAEGTPCYVDSEGIVRMLNRGLGNTWTPICNTREHCKGKSDHYWVVGIHENPQQLRCIPCKGSRFPPTLPRPAVAILSFKLPYCQIATEKGQMEEQFWRSVIFHNHLDYLAKNGYEYEESTKNQATKEQQELLMKMLALSCKLEREFRCVELADLMTQNAVNLAIKYASRSRKLILAQKLSELAVEKAAELTATQVEEEEEEEDFRKKLNAGYSNTATEWSQPRFRNQVEEDAEDSGEADDEEKPEIHKPGQNSFSKSTNSSDVSAKSGAVTFSSQGRVNPFKVSASSKEPAMSMNSARSTNILDNMGKSSKKSTALSRTTNNEKSPIIKPLIPKPKPKQASAASYFQKRNSQTNKTEEVKEENLKNVLSETPAICPPQNTENQRPKTGFQMWLEENRSNILSDNPDFSDEADIIKEGMIRFRVLSTEERKVWANKAKGETASEGTEAKKRKRVVDESDETENQEEKAKENLNLSKKQKPLDFSTNQKLSAFAFKQE
notes: AND-1, human (Ctf4 in budding yeast)
binding result [1]: binds | stoichiometry N [2]: 3 | binding result [3]: binds
